The record followed here is patent USRE50880 (Kymab Limited, dated 2026).

This test concerns the target Recombinant Human OX40L (Leader sequence, Isoleucine Zipper and FLAG Sequence Included) (human). Briefly: cell-based or functional assay.

Sequence of Recombinant Human OX40L (Leader sequence, Isoleucine Zipper and FLAG Sequence Included) (human) (chain, as listed by the source limits assumed): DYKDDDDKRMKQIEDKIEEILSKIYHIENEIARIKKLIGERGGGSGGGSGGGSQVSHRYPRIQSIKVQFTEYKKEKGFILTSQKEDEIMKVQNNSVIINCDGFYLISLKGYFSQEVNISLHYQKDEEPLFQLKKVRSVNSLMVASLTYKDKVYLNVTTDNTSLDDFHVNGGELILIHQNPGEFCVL

B1: 10A07 (human) (antibody, V domains shown)
VH: EVQLVESGGVLVQPGGSLRLSCAASGFTFSSYIMTWVRQAPGKGLEWVSGISGSGGGTYYADSMKGRFTISRDNSKNTLYLQMNSLRVEDTAVYYCAKDRLGPITLVRGGYYYGMDVWGQGTTVTVSS
VL: DIQMTQSPSSLSASVGDRVTITCRASQSISDYLNWYQQKPGKAPKFLIYAASSLQSGVPSRFSGSGSGTDFTLTVSSLQPEDFATYYCQQSYSTPRTFGQGTRVEIKR
As for B1, the “Primary T-cell Assay IC50 nM (recombinant OX40L induced IL2 release from primary human T cells)” value amounted to 0.83 nM.

B2: 2D10 (human) (antibody, human IgG4 S228P, kappa, V domains shown)
VH: EVQLVESGGGLVQPGGSLRLSCAASGFTFSNYAMNWVRQAPGKGLEWVSTISGSGGATRYADSVKGRFTISRDNSRNTVYLQMNSLRVEDTAVFYCTKDRLIMATVRGPYYYGMDVWGQGTTVTVSS
VL: DIQMTQSPSSLSASVGDRVTITCRASQSISSYLNWYQQKPGKAPNLLIYAASSLQSGVPSRFSGSGSETDFTLTISSLQPEDFATYYCQQSHSVSFTFGPGTKVDIKR
Regarding B2, the “Primary T-cell Assay IC50 nM (recombinant OX40L induced IL2 release from primary human T cells)” value came out at 0.81 nM.
